Source: the nanobody polyreactivity screen of Harvey et al. (2022)

Assay: yeast display, Sf9 membrane polyspecificity reagent, FACS + sequencing; frameworks hold sequencing errors
Procedure, shortened: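 Genes from sorted yeast were amplified by colony PCR, read by MiSeq 2 × 250 sequencing and filtered on CDR length. These cells carried a synthetic nanobody library in Saccharomyces cerevisiae BJ5465 and were sorted by FACS into low and high (top ~1%) gates on anti-HA and streptavidin fluorescence. Polyreactivity is labelled according to the gate of origin.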

Row | Sequence | polyreactivity (PSR sort gate)
1 | QVQLVESGGGLVQAGGSLRLSCAASGSIFPINARGWYREAPGKERELVAVITSGGGGTYYADSVKGRFTISRDNAKNTVYLQMNCLTPEDTAVYYCAKRLSRKWQKFGYWGQGTQVTVSS | low polyreactivity
2 | QVQLVESGGGLVQAGGSLRLSCAASGSIFPIYAMGWYRPAPGKERELVAAINRSGGSTYYADSVKGRFTISRDNAKNTVYLQMNSLKPEDTAVYYCNADYGYHNQLFWGYYGWSSDHWGQGTQVTVSS | low polyreactivity
3 | QVQLVESGGGLVQAGGSLRLSCAASGSIFPKNAMGWSRQAPGKVREFVATITKRGGRTYYADSVKGRFTISRDNAKNTVYLQMNSQKPEEPAVYYCARDQGKLVVPYDYWGQGTQLTVSS | high polyreactivity
4 | QVQLVESGGGLVQAGGSLRLSCAASGSIFPKNAMGWYRQAPGKERELVAGITSRTGRTYYADSVKGRFTISRDKAKNTVYLQMNSLKPEDTAVYYCAARIGGGPVKYDYWGQGTQVTVSS | high polyreactivity
5 | QVQLVESGGGLVQAGGSLRLSCAASGSIFPKNAMGWYRQATGKERELVARISGSGGSTYYADSVKGRFTISRDNAKNTVYLQMNSLKPEDTAVYYCAKDQSKIYSSWSGYYYWGQGTQVTVSS | low polyreactivity
6 | QVQLVESGGGLVQAGGSLRLSCAASGSIFPKYAKGWYRQAPGKEREMVAAINWRGVSTYYADSVKGRFTISRDNAKNTVYLQMNSLKPEDTAVYYCAADLLHTRQFGYWGQGTQVTVSS | low polyreactivity
7 | QVQLVESGGGLVQAGGSLRLSCAASGSIFPKYAMGWDRQAPGKERELVATITWSGSSTYYADSVKGRFTISRDNAKNTVYLQMNSLKPEDTAVYYCAATGWSSFYYRFDYWGQGTQVTVSS | low polyreactivity
8 | QVQLVESGGGLVQAGGSLRLSCAASGSIFPLNAMGWYRQAPGKERELVASISTGSSTYYADSVKGRFTISRDNAKNTVYLQMNSLKPEDTAVYYCAVDRVLFSDYYRGYEYNYWGQGTQVTVSS | low polyreactivity
9 | QVQLVESGGGLVQAGGSLRLSCAASGSIFPLNDMGWYRQAPGKERELVAAITIGGSTYYADSVKGRFTISRDNAKNTVYLQMNSLKPEDTAVYYCAKVGELSYRYDYWGQGTQVTVSS | high polyreactivity
10 | QVQLVESGGGLVQAGGSLRLSCAASGSIFPLYAMGWYRQAPGKERELVADITVSGGSTYYADSVKGRFTISRDNAKNTVYLQMNSLKPEDTAVYYCNADDRSPFPDYWWYPYDYDYWGQGTQVTVSS | low polyreactivity
11 | QVQLVESGGGLVQAGGSLRLSCAASGSIFPLYDMGWYRQAPGKERELVAGITGSGGSSYYADSVKGRFTISRDNAKNTVYLQMNSLKPEDTAVYYCAADYSLYGWWFRNDYWGQGTQVTVSS | low polyreactivity
12 | QVQLVESGGGLVQAGGSLRLSCAASGSIFPNGMGSYRQAPGKERELVATITSGGSTYYADSVKGRFTISRDNAKNTVYLQMNSLKPEETAVYYCADTVYGGYSGSGCNYWGKGTQVTVSS | low polyreactivity
13 | QVQLVESGGGLVQAGGSLRLSCAASGSIFPPNAMGWYRQAPGKERELVAGISQSGGSTYYADSVKGRFTISRDNAKNTVYLQMNSLKPEDTAVYYCARSFYSGRRYYYWGQGTQVTVSS | high polyreactivity
14 | QVQLVESGGGLVQAGGSLRLSCAASGSIFPPYAMGWYRQAPGKERELVATITIRGGSTYYADSVKGRFTISRDNAKNTVYLQMNSLKREDTAVYYCAADYTKYYRRYYYWGQGTQVTVSS | high polyreactivity
15 | QVQLVESGGGLVQAGGSLRLSCAASGSIFPPYVMGWYRPAPGKERELVAAINYIGDSTYADSVKGRFTISRDNAKNTVYLQINSLKPEDTAVYYCAAELWSGGVYSGFEEYWGQGTQVTVSS | high polyreactivity
16 | QVQLVESGGGLVQAGGSLRLSCAASGSIFPQNAMGWYRQAPGKERELVASITSRGGITNYADSVKGRFTISRDNAKNTVYLQMNSLKPEDSAVYYCAADLYIYPYDYWGQGTQVTVSS | low polyreactivity
17 | QVQLVESGGGLVQAGGSLRLSCAASGSIFPQYAMGWYRQAPGTERELVAAISSSGGRTYYADSVKGRFTISRDNAKYTVYLQMNSLKPEDTAVYYCITRWRSRYGYGDQSEDYWGQGTQVTVSS | high polyreactivity
18 | QVQLVESGGGLVQAGGSLRLSCAASGSIFPRNAMGWYRQAPGKERELVAAITTTGGITHYADSVKGRFTISRDNAKNTVYLQMNSLKPEDTAVYYCAASNEVPWRFPDDYWGQGTQVTVSA | low polyreactivity
19 | QVQLVESGGGLVQAGGSLRLSCAASGSIFPRNTMGWYRQAPGKERELVAAMSSGASTYYADSVKGRFTISRDNAKNTVYLQMNSLKPEDTAVYYCAKRYQDTSPKDGENEYWGQGTQVTVSS | low polyreactivity
20 | QVQLVESGGGLVQAGGSLRLSCAASGSIFPRYAMGWYRQAPGKERELVAAINSGGSTNYADSVKGRFTISRDNAKNTVYLQMHSLKPEDTAVYYCNAVFISYSYRRGPTLYVYWGQGTQVTVSS | high polyreactivity
21 | QVQLVESGGGLVQAGGSLRLSCAASGSIFPSNAMGWYRQAPGKERELVAAINRDGITNYADSVKGRFTISRDNAKNTVYLQMNSLKPEDTAVYYCAAEFAWQWWEYGYWGQGSQVTVSS | low polyreactivity

Row | Sequence | polyreactivity (PSR sort gate)
22 | QVQLVESGGGLVQAGGSLRLSCAASGSIFPSYAMGWYRQAPGKDRELVATLGRGGTTNYADSVKGRFTLSRDNAKNTVYIQMNSLKPEDTAVYYCNAERIWRYKDGYDYWGQGTQVTVSS | high polyreactivity
23 | QVQLVESGGGLVQAGGSLRLSCAASGSIFPSYARGWDRKAPGKERELVAAISSSGGSTYYADSVKGRFTISRDNAKNTVYLQMNSLKPEDTAVYYCATRYRRWSTVVQDDYWGQGTQVTVSS | low polyreactivity
24 | QVQLVESGGGLVQAGGSLRLSCAASGSIFPSYSMGWYRQAPGKERELVAVISVSGGRTYYADSVKGRFTISRDNAKNTVYLQMKSLKPEDTAVYYCAKDRPQEYDYWGQGTQVTVSS | low polyreactivity
25 | QVQLVESGGGLVQAGGSLRLSCAASGSIFPVNAMGWYRQAPGKEREFVAAINVIGGSTYYADSVKGRFTISRDNAKNTVYLQMNSLKPEVTAVYYCAVEGYSILFGMDYLGQGTQVTVSS | low polyreactivity
26 | QVQLVESGGGLVQAGGSLRLSCAASGSIFPVNAMGWYRQAPGKERELVAAISEGSTSTYYADSVKGRFTISRDNAKNTVYLQMNSLKPEDTAVYYCAADYDTGYEYWGQGTQVTVSS | low polyreactivity
27 | QVQLVESGGGLVQAGGSLRLSCAASGSIFPVYTMGWYRQAPGKEREFVATITISGAITYYADSVKGRFTISRDNAKNTVYLQMTSLKPEDTAVYYCNTGPMYFPANDYWGQGTQVTVSS | low polyreactivity
28 | QVQLVESGGGLVQAGGSLRLSCAASGSIFPWNAMGWYRQAPGKERELVAGINESGGSTYYADSVKGRFTISRDNAKNTVYLQMNSLKPEDTAVYYCAADGYPSVGDDYWGQGTQVTVSS | low polyreactivity
29 | QVQLVESGGGLVQAGGSLRLSCAASGSIFPWYAMGWYRQAPGKERELVAAITISGGSTHYADSVKGRFTISRDNAKNTVYLQMNRLKPEDTAVYYCATPRYPSYDYWGQGTQVTVSS | low polyreactivity
30 | QVQLVESGGGLVQAGGSLRLSCAASGSIFPYNAMGWYRQAPGEFVAAISYSSGSTYYADSVKGRFTISRDNAKNTVYLQMNSLKPEDTAVYYCAAGSWYPPSYVWLGRYDYWGQGTQVTVSS | low polyreactivity
31 | QVQLVESGGGLVQAGGSLRLSCAASGSIFPYNDMGWYRQAPGKERELVAAISDSAGSTYYADSVKGRFTISRDNAKNTVYLQMNSLKPEYTAVYYCADYDYWGQGTQVTVSS | low polyreactivity
32 | QVQLVESGGGLVQAGGSLRLSCAASGSIFPYNPMGWYRQAPGEFGAAISYSSGSTYYADSVKGRFTISRDNAKNTVYLQMNSLKPEDTAVYYCAAGLPKYEHEYWGQVTQVTVSS | low polyreactivity
33 | QVQLVESGGGLVQAGGSLRLSCAASGSIFPYYAMGGYRQAAGKERELVATITSRGGSTDYADYVKGRFTISRDNAKNTVYLQMNSLKREDTAVYYCAKEYRYYRRRYDYWGQGTQVTVSS | high polyreactivity
34 | QVQLVESGGGLVQAGGSLRLSCAASGSIFPYYAMGWYRQAPGKERDLVAAISWSGTSTYYADSLKGRFTISRDNAKNTVYLQMNSLNPEDTAVYYCAASGVGTNHYGYWNESDYWGQGTQVTVSS | low polyreactivity
35 | QVQLVESGGGLVQAGGSLRLSCAASGSIFPYYAMGWYRQAPGKERELVAAINWSGDSTYYADSVKGRFTISRDNAKNTVYLQMNSLKPEDTAVYYCAARSRWRYDYWGQGTQVTVSS | low polyreactivity
36 | QVQLVESGGGLVQAGGSLRLSCAASGSIFPYYAMGWYRQAPGKERELVAAITWSGGGTYYADSVKGRFTISRDNAKNTGYLQMNSLKPEDTAVYYCAASYRYYWFDYWGQGTQVTVSS | high polyreactivity
37 | QVQLVESGGGLVQAGGSLRLSCAASGSIFPYYAMGWYRQAPGKERELVAGISRRGGTTYYADSVKGRFTISRDNAKNTVYLQMNSLKPEDTAVYYCAARYGPYVDRYGYWGQGTQVTVSS | high polyreactivity
38 | QVQLVESGGGLVQAGGSLRLSCAASGSIFPYYAMGWYRQAPGKERELVATISSGGSTFYADSVKGRFTISRDNAKKTVYLQMNSLKPEDTAVYYCAADIWYFDYDYWGQGTQVTVSS | high polyreactivity
39 | QVQLVESGGGLVQAGGSLRLSCAASGSIFPYYAMGWYRQAPGKERELVATITSRGGSTYYADSVKGRFTISRDNAKNTVYLQMNSLKPEDTAVYYCAKEYRYYRRRYDYWGQGTQVTVSS | high polyreactivity
40 | QVQLVESGGGLVQAGGSLRLSCAASGSIFPYYDMGWYRQAPGKERELVAAITSSGSTFYADSVKGRFTISRDNAKNTVYLQMNSLKPEVTAVYSCNTRDIRVRPYDYWGQGTQVTVSS | low polyreactivity
41 | QVQLVESGGGLVQAGGSLRLSCAASGSIFQFNAMGWYIQAPGKERELVAAISRRTGSTYYADSVKGRFTISRDNAKNTVYLQMNSLKPEDTAVYYCAAKGYGSAPTYRHNYWGQGTQVTISS | high polyreactivity
